For assay [1], the target named is T1, recombinant biotinylated hAngiopoietin-2 protein (R&D, Cat. No.: BT623B/CF) (human, UniProt O15123 19-496, limits assumed, biotinylated (sites not given)).
T1 construct: Bought protein; also called Biotin Ang2; human biotin Ang2 protein
T1 sequence: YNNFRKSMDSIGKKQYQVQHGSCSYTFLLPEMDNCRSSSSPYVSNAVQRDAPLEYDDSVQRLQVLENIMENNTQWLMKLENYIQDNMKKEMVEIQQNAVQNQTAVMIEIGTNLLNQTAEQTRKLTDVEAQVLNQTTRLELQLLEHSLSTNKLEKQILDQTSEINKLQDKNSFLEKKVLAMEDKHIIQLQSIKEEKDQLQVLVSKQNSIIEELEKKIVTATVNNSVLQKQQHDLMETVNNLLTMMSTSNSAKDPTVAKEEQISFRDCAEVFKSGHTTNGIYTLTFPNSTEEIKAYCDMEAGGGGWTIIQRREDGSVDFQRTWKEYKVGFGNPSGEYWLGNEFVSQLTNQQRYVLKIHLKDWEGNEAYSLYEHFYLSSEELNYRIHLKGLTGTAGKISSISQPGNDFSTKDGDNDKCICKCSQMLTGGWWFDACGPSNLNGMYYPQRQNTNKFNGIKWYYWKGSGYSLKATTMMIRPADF
Description: blocking ELISA: antibody titrated against biotinylated hAng2 (300 ng/ml final); blocked binding to coated hTie2 protein; Avidin-HRP detection. The method, then:
The abilities of 81H10, 86E9, 107H7, hz81H10.4, Amhz81H10.4.30, Amhz81H10.4.49, and the control antibodies Nesvacumab and faricimab to block the binding of human Ang2 to hTie2 were determined by ELISA. Faricimab is a bispecific antibody drug undergoing a clinical trial and developed by Roche, which targets both angiopoietin-2 (Ang-2) and VEGF-A.
Then the plate was blocked using 5% BSA for 1 h. The biotinylated antigen, recombinant biotinylated hAngiopoietin-2 protein (R&D, Cat. No.: BT623B/CF), was diluted to 600 ng/ml, and was added into the microtiter plate at 50 μl/well. The antibodies (81H10, 86E9, 107H7, hz81H10.4, Amhz81H10.4.30 and Amhz81H10.4.49) prepared as described above were gradiently diluted with a total of 8 or 12 dilution points starting from the highest concentration, and then added to the microtiter plate at 50 μl/well, and incubated in PBS on ice for 30 min. Then, 50 ul of antigen solution was added to the microtiter plate, in which the final antigen concentration was 300 ng/ml. The plate containing the antigen-antibody mixture was incubated for 90 min. After three washes with PBS, the supernatant was discarded, and Avidin-HRP (Invitrogen) diluted at 1:10000 was added at 100 μl/well, then incubated at room temperature for 30 min. PBS was used to wash the plate six times. Then TMB chromogen solution (solarbio) was added at 100 ul/well to allow for chromogenic reaction for 1 min, then the reaction was terminated with the addition of stop solution (solarbio) at 100 ul/well.

Assay [2] has as its target T2, human Ang2 (human, UniProt O15123 19-496, limits assumed).
T2 construct: also called hAng2; h Ang2
T2 sequence: T1 sequence
Description: SPR, Biacore T200, antibody captured on Protein G chip, experiment 1. The method, then:
(§1) The antibody was diluted to 1 μg/mL and was captured onto channel 2 for 30 s, and channel 1 was the blank control channel. The gradient-diluted Human ANG2, Rhesus ANG2, Rabbit ANG2, Rat ANG2 and Mouse ANG2 were sequentially injected into channels 1 and 2 of the chip, from low to high concentrations (0-32 nM), at a flow rate of 30 μL/min, with one concentration per cycle, and with 180 s association time and 1200 s dissociation time at 25° C. Finally, the chip was regenerated using Glycine pH 1.5 at 30 μL/min for 30 s. The affinity assay was repeated three times.
(Surface plasmon resonance follows binding to a sensor surface in real time, without labels.)

The target of assay [3] is T3, Rhesus ANG2 (rhesus, UniProt F6QXG0 19-496).
T3 sequence: T1 sequence with I279V, F284L, I291V, G410A, A468G
Described as above. The method, then: as §1

Assay [4] concerns the target T4, Rabbit ANG2 (rabbit, UniProt G1T9B3 19-496).
T4 sequence: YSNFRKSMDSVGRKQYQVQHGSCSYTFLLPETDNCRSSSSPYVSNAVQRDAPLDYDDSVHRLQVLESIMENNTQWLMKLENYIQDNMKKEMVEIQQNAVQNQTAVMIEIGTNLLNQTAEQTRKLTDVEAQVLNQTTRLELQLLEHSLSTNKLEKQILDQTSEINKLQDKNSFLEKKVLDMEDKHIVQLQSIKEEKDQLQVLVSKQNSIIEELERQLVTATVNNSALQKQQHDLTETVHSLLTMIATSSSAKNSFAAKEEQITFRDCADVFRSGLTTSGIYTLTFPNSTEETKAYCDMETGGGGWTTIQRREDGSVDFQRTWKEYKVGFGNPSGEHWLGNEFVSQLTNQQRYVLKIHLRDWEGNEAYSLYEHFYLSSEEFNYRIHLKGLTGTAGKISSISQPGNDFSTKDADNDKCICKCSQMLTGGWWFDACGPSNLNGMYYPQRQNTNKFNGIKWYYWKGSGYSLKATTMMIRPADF
The description is as above. The method, then: as §1

We go through 1 molecule from patent US20240239881A1 (Innovent, published 2024).

Where a chain is given by its changes, count along the chain named.

B1: humanized antibody hz81H10.4 (antibody, human IgG1, kappa, V domains shown)
VH: EVQLVESGGGLVKPGGSLRLSCAASGFTFSNYWMNWVRQAPGKGLEWVAEIRLKSNNYATHYAESVKGRFTISRDVSKNTVYLQMNSLKTEDTAVYYCTDTAPFAYWGQGTLVTVSS
VL: DIQMTQSPSSLSASVGDRVTITCKASQDVGTDVAWYQQKPGKAPKLLIYWASTRHTGVPSRFSGSGSGTDFTLTISSLQPEDFATYYCQQYSSYPLTFGGGTKVEIKR
notes: also called IBI335
As usually defined, the IC50 is the concentration that gives 50% inhibition. As usually defined, the Kd is the concentration at which binding is half-saturated. Usually koff stands for the rate constant with which the complex falls apart. A high value points to a short-lived complex. For orientation: kon means the rate constant with which the complex forms. Low values mean slower complex formation, high ones faster complex formation. With B1, the half-maximal inhibitory concentration (IC50) in assay [1] was 728 pM. In assay [2], this molecule had a Kd of 69.4 pM, a dissociation rate constant (koff) of 1.74e-05 s⁻¹ and an on-rate constant (kon) of 250000 M⁻¹ s⁻¹. For the same molecule, in assay [3], binding was characterised by a dissociation constant (Kd) of 183 pM, the off-rate constant (koff) is 4.87e-05 s⁻¹ and the kon came to 266000 M⁻¹ s⁻¹. In assay [4], this molecule had a Kd of 518 pM, a koff of 0.000153 s⁻¹ and a kon of 294000 M⁻¹ s⁻¹.
